Source: article PMC3582769 (Molecular cell, 2013)

Biological target: ELOBC heterodimer (UniProt Q15370;Q15369)
Test: SEC-MALS

Chain of ELOBC heterodimer (Q15370 whole entry, chain 1 of 2): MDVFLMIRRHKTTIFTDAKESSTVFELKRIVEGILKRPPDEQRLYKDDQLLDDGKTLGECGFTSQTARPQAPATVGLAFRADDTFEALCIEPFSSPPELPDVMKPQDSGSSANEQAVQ
Chain of ELOBC heterodimer (Q15369 whole entry, chain 2 of 2): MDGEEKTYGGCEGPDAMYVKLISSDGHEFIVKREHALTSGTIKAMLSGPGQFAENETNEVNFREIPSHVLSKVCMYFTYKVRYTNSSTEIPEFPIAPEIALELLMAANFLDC

B1: Strep-Vif (HIV-1 Vif, wild type) (natural protein)
chain: not shown
- binding result: binds
